One assay addresses T1, α4β1 integrin on cells (human, UniProt P13612 34-1032).
T1 construct: whole, on cells; also called α4β1 on Jurkat cells; stably transfected α4β1 cells
Briefly: Jurkat cell adhesion to VCAM-Ig, confirming the absence of binding to α4β1 cells in Example 3. As for the experimental part: (§1) The plate was washed twice with PBS (200 μl/well), blocked with 1% BSA in PBS (200 μl/well) for 1 h at room temperature, and washed thrice with 200 μl/well of assay buffer (TBS, 2 mM Glucose, 0.1% BSA, 1 mM CaCl₂) and 1 mM MgCl₂, pH 7.4). Jurkat cells were removed from cell suspension and centrifuged at 1500 rpm for 5 mins. The pellet was resuspended in RPMI 1640, 1% BSA buffer and incubated with 2 μM fluorescent dye (BCECF, Molecular Probes, Eugene, Oreg.) in a 37° C. incubator for 30 min. The labeled cells were washed twice by centrifugation at 1100 rpm for 5 min and resuspended in assay buffer to 0.8×10⁶ cells/ml. To individual wells of the washed plate were added 50 μl of purified antibody and 50 μl of Jurkat cells labeled with BCECF, and the plate was incubated at room temperature in dark for 1 h. The plate was washed 3-4 times with assay buffer (200 μl/well), and the fluorescence due to adhered cells on the plate was recorded at 485 nm (Excitation) and 538 nm (Emission) wavelength. Percent binding was determined by comparing the fluorescence prior to the final wash step (i.e. total cells added) to that after washing (i.e. bound cells).
This includes examples for a pan-αv commercial antibody (L230), a pan-β1 commercial antibody (mAb13), a published α4-specific antibody (natalizumab), and the c8 small molecule compound previously published as αvβ1 specific (Reed N I et al, Sci Transl Med, 7(288): 288ra79 (2015)).

The target of assay [1] is T2, human αvβ1 integrin on cells (human, UniProt P06756 31-1048; P05556 21-798).
T2 construct: also called stably transfected human αvβ1 cells; αvβ1 on MRC9 human lung fibroblasts
T2 sequence (P06756 31-1048 limits assumed, chain 1 of 2): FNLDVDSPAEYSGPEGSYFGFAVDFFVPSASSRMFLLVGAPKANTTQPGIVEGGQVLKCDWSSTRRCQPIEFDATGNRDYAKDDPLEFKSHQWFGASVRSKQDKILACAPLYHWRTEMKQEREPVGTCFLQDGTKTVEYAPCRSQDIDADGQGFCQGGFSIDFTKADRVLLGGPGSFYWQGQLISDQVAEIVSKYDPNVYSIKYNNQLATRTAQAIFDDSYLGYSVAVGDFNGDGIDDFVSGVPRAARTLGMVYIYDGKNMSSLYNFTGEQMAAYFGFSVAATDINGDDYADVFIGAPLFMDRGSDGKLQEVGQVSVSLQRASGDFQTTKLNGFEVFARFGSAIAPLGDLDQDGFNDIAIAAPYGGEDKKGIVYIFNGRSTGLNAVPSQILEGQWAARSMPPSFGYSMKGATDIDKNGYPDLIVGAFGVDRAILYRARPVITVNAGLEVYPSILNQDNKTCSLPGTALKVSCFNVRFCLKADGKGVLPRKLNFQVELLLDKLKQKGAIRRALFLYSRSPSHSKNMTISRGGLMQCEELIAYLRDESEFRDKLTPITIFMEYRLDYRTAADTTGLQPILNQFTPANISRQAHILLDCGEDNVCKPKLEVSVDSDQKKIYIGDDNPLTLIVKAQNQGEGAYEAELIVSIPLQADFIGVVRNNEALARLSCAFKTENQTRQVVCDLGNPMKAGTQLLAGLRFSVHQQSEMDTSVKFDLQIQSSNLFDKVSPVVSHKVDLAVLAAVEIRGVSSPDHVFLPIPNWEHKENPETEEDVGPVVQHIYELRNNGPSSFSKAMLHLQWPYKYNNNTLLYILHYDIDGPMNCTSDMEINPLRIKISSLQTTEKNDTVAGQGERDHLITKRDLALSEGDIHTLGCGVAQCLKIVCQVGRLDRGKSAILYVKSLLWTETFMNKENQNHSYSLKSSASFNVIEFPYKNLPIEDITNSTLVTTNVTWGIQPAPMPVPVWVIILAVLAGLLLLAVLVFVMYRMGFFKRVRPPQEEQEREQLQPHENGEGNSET
T2 sequence (P05556 21-798 limits assumed, chain 2 of 2): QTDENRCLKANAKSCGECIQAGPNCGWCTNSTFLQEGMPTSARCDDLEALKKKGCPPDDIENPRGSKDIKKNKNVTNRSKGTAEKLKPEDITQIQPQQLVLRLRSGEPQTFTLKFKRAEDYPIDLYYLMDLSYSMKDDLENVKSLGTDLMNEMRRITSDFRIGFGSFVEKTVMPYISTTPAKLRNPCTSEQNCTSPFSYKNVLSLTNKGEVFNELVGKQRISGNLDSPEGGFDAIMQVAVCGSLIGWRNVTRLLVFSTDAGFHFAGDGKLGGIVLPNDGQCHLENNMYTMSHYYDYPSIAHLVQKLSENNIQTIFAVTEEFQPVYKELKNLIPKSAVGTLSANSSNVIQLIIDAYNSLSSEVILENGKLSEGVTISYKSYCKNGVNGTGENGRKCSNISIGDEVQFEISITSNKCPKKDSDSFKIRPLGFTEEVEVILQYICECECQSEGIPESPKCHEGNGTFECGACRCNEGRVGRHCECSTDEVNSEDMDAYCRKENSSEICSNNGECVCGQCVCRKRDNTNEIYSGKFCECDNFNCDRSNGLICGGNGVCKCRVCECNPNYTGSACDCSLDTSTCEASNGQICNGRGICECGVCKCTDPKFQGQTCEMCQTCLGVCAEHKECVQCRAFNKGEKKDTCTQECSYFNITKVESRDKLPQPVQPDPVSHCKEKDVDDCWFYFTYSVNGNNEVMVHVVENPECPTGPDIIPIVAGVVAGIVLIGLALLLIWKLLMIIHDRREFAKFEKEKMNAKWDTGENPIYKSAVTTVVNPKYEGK
The assay can be described thus: inhibition of adhesion of BCECF-labelled αvβ1-transfected cells to plate-coated LAP. As for the experimental part: as §1, with “7.4). Stably transfected human αvβ1” for “7.4). Jurkat”, “at 1100” for “at 1500”, “of human αvβ1” for “of Jurkat”

Assay [2] has as its target T3, mouse αvβ1 integrin on BLO-11 mouse skeletal muscle fibroblasts (mouse, UniProt P43406 31-1044; P09055 21-798).
T3 construct: whole, on cells; the cells carry other integrins as well; also called BLO-11 (murine fibroblast cells)
The assay can be described thus: flow cytometry on BLO-11 mouse skeletal muscle fibroblasts. The method, then:
MRC9 cells were obtained from Sigma (#85020202) and maintained in EMEM (ATCC, #30-2003) supplemented with 10% Fetal Bovine Serum (FBS from Gibco, #16000-077). BLO-11 cells were obtained from ATCC (#CCL-198) and maintained in DMEM (ATCC, #30-2002) supplemented with 10% FBS. Cells were harvested by incubating with cell dissociation buffer (Gibco, #13150-016) at 37° C. for 10 min and then washed with FACS buffer containing CaCl₂) and MgCl₂ (FACS⁺⁺ buffer; PBS+1% BSA+1 mM CaCl₂)+1 mM MgCl₂). All staining and wash steps were performed at 4° C. in FACS⁺⁺ buffer. In a 96 well U bottom plate, 0.75×10⁶ cells per well were plated and then spun down to remove supernatant. Cells were then resuspended in serially diluted primary antibody and incubated for 30 min. After incubation, cells were washed twice and then incubated with α-human IgG Alexa Fluor 647 (Invitrogen, #A21445) secondary antibody for another 30 min. Cells were then washed twice and fixed with 1% PFA diluted in PBS for 30 min, followed by a final wash. Fluorescence activated cell sorting (FACS) analysis was performed using a five-laser BD LSR-II flow cytometer (BD Biosciences, San Jose, Calif., USA), and data were analyzed using FlowJo software v9 (Treestar, Ashland, Oreg., USA) and transferred into analysis and graphic software including GraphPad Prism 7 (La Jolla, Calif., USA).
For orientation: In flow cytometry, cells or beads pass a laser one at a time.

Assay [3] deals with T4, αvβ3 integrin on stably transfected cells (human, UniProt P05106 27-788).
T4 construct: whole, on cells
Briefly: flow cytometry on stably transfected cells, antibody titration (bivalent EC50). As for the experimental part:
(§2) Cells were washed in the appropriate assay buffer three times by pelleting at 1500 RPM for 3 minutes and then pouring out supernatant. Assay buffer for this experiment was TBS containing 1 mg/mL BSA and supplemented with either 1 mM Ca+1 mM Mg or with 1 mM Mn. Cells were then resuspended in assay buffer at a concentration of 1.0-1.5×10⁶ cells/mL and transferred to wells of a 96-well assay plate (Corning 3799) in 50 μL aliquots. Plates were then centrifuged at 2000 RPM for 3 minutes to pellet cells and supernatant was flicked out. Cells were resuspended in 100 μL of antibody sample and incubated on ice for 45 to 60 minutes.
(§3) Plates were washed three times in 150 μL assay buffer by pelleting at 2000 RPM for 3 minutes and then flicking out the supernatant. Cells were then resuspended in 50 μL of phycoerythrin-conjugated goat anti-human Fab secondary reagent and incubated on ice in the dark for 30 minutes. Plates were washed three times in 150 μL assay buffer by pelleting at 2000 RPM for 3 minutes and then flicking out the supernatant. Cells were then resuspended in 200 μL of assay buffer+1% polyformaldehyde (PFA) for 30 minutes on ice to fix the cells. Cells were pelleted to remove the PFA and then resuspended in 150 μL assay buffer.

Assay [4] deals with T2, human αvβ1 integrin on cells. The assay is described as above. The method, then:
as §2, §3

Assay [5] deals with T5, αvβ8 integrin on stably transfected cells (human, UniProt P26012 43-769).
T5 construct: whole, on cells
T5 sequence (chain, as listed by the source, chain 1 of 2): as the sequence (P06756 31-1048 limits assumed, chain 1 of 2) above
T5 sequence (P26012 43-769, chain 2 of 2): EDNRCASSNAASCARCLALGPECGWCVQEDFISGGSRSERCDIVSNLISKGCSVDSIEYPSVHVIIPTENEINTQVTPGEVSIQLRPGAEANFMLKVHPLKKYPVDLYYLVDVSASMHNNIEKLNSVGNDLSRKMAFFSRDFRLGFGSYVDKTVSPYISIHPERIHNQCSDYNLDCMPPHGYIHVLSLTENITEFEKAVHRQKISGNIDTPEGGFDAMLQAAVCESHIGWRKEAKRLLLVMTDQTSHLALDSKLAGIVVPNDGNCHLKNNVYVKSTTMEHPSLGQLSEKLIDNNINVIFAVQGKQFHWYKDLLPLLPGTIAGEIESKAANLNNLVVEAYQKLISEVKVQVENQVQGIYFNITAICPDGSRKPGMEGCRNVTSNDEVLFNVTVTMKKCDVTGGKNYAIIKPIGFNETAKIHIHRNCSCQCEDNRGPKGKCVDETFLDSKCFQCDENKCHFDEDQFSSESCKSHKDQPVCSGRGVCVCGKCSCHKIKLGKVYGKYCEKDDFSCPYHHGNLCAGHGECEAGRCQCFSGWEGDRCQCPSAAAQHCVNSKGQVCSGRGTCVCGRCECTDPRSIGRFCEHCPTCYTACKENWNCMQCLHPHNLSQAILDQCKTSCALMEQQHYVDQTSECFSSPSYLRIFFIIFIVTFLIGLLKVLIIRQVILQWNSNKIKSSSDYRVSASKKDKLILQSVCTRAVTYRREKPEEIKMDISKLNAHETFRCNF
Briefly: flow cytometry on stably transfected cells; weak binding observed but incomplete fit to calculate EC50. The method, then:
as §2, §3

The target in assay [6] is T5, αvβ8 integrin on stably transfected …. The assay can be described thus: flow cytometry on stably transfected cells, antibody titration (bivalent EC50). As for the experimental part:
as §2, §3

The target of assay [7] is T6, αvβ5 integrin on stably transfected cells (human, UniProt P18084 24-799).
T6 construct: whole, on cells
The assay is described as above. The method, then: as §2, §3

Assay [8] concerns the target αvβ6 integrin on stably transfected cells (human, UniProt P06756 31-1048; P18564 22-788). The assay is described as above. The method, then:
as §2, §3

The values below come from US20220195052A1 (Biogen, published 2022).

Numbering of substitutions follows the chain as printed. A value given as a limit tells only on which side of the number the result lay.

T3 sequence (P43406 31-1044, chain 1 of 2): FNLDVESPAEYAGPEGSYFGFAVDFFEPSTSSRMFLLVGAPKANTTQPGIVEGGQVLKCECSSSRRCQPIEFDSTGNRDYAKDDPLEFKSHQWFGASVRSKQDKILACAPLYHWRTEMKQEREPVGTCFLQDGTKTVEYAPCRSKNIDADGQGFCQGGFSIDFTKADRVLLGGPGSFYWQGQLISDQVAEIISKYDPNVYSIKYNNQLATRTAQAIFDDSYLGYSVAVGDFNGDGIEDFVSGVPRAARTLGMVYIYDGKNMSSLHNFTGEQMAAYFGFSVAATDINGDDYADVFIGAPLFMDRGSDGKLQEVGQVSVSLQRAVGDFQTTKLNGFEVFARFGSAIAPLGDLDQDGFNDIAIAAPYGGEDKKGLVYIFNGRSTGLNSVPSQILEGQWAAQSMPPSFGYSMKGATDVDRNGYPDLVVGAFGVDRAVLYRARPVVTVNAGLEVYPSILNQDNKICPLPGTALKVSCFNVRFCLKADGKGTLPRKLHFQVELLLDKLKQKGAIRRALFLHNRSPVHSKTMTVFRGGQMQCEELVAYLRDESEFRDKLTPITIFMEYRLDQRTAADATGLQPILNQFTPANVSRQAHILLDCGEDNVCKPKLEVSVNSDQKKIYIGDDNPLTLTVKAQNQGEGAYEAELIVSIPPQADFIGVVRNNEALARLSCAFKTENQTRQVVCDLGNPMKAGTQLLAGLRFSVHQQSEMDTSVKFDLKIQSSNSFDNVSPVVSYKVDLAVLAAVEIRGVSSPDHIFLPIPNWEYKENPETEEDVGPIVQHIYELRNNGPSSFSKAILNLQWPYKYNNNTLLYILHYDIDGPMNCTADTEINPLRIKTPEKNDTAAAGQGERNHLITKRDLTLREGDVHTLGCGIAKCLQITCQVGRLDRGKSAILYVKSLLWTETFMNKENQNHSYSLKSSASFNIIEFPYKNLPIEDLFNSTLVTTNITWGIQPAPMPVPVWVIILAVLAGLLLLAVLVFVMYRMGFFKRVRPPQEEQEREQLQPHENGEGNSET
T3 sequence (P09055 21-798, chain 2 of 2): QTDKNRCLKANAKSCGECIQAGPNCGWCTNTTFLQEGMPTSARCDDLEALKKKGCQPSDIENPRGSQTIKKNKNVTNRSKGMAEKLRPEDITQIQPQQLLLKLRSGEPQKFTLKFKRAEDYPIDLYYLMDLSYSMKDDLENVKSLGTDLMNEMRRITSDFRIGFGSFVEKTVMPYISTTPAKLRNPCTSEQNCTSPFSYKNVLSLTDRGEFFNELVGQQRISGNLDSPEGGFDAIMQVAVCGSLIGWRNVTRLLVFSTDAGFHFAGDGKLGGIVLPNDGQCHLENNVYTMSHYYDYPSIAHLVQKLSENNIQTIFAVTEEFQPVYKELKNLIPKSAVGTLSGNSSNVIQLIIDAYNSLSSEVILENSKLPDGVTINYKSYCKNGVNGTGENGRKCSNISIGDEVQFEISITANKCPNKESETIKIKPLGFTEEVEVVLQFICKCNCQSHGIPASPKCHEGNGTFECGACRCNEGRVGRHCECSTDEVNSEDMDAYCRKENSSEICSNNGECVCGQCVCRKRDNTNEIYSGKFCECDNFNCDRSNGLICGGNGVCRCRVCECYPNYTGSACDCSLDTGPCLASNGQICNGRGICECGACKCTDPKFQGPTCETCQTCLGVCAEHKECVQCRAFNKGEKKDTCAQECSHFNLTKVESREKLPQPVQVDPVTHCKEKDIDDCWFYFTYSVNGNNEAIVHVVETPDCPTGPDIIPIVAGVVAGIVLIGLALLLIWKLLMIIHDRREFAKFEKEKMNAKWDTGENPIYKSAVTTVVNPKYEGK

B1: Exemplary Antibody 17 (antibody, V domains shown)
VH: EVQLVQSGAEVKKPGESLKISCKGSGYSFTSYWIGWVRQMPGKGLEWMGIIYPGDSDTRYSPSFQGQVTISADKSISTAYLQWSSLKASDTAMYYCARGPRSRGDGPSNYYYMDVWGQGTLVTVSS
VL: DIQMTQSPSTLSASVGDRVTITCRASQSISSWLAWYQQKPGKAPKLLIYKASSLESGVPSRFSGSGSGTEFTLTISSLQPDDFATYYCQQYRPLPPTFGGGTKVEIK
notes: expressed in yeast (Adimab platform) and purified on protein A; also called Ex. Ab 17
A word on the IC50: it is the point on the concentration scale where inhibition reaches its midpoint. Read a low IC50 as greater potency. The term EC50 denotes the concentration needed to bring the measured effect to its halfway point. A lower EC50 goes with an effect from little substance. For B1, the binding result in the assay with α4β1 integrin on cells was “no binding”; in [2], “binds”. This molecule also returned an IC50 in assay [1] of less than 1 nM. Also, the EC50 was found to be 3.3 nM in assay [3] and 1.4 nM in [4].

B2: Exemplary Antibody 6 (antibody, V domains shown)
VH: QVQLVESGGGLVKPGGSLRLSCAASGFTFSDYYMSWIRQAPGKGLEWVSYISSSGSTIYYADSVKGRFTISRDNAKNSLYLQMNSLRAEDTAVYYCARGGRNRGDSSLSGIDVWGQGTTVTVSS
VL: DIQMTQSPSSLSASVGDRVTITCRASQSINSYLNWYQQKPGKAPKLLIYAASSLQSGVPSRFSGSGSGTDFTLTISSLQPEDFATYYCQQQYSDITFGGGTKVEIK
notes: expressed in yeast (Adimab platform) and purified on protein A; also called Ex. Ab 6
In assay [1], B2 displayed a 50% inhibitory concentration (IC50) of 9 nM. Further, in assay [4], it took 0.8 nM to reach a half-maximal effect (EC50).

B3: Exemplary Antibody 13 (antibody, V domains shown)
VH: B2 VH with R101P, N102S, S106A, S107L, L108A, S109E, G110Y, I111F, D112Q, V113H
VL: EIVMTQSPATLSVSPGERATLSCRASQSVSSNLAWYQQKPGQAPRLLIYGASTRATGIPARFSGSGSGTEFTLTISSLQSEDFAVYYCQQLTNHPPIAFGGGTKVEIK
notes: expressed in yeast (Adimab platform) and purified on protein A; also called Ex. Ab 13
On to B3, for which the IC50 in [1] came out at 1.3 nM. Also, the concentration for a half-maximal effect (EC50) in assay [4] was 0.6 nM.

B4: Exemplary Antibody 20 (antibody, V domains shown)
VH: B2 VH with R101P, N102S, S106A, S107L, L108A, S109E, G110Y, I111F, D112Q, V113H
VL: EIVLTQSPATLSLSPGERATLSCRASQSVSRYLAWYQQKPGQAPRLLIYDASNRATGIPARFSGSGSGTDFTLTISSLEPEDFAVYYCQQLSLHPPYTFGGGTKVEIK
notes: expressed in yeast (Adimab platform) and purified on protein A; also called Ex. Ab 20
Turning to B4, in assay [1], half-maximal inhibition (IC50) was put at 1 nM. The binding result in assay [5] is reported as “binds”. The molecule further had an EC50 in [4] of 0.4 nM.

B5: Exemplary Antibody 7 (antibody, V domains shown)
VH: B2 VH with R101P, N102S, S106A, S107L, L108A, S109E, G110Y, I111F, D112Q, V113H
VL: B3 VL with T92V, H94Y, A98T
notes: expressed in yeast (Adimab platform) and purified on protein A; also called Ex. Ab 7
On to B5, for which inhibition in assay [1] was half-maximal at 4.3 nM (IC50). In assay [4], this molecule came in with an EC50 of 1.2 nM.

B6: Exemplary Antibody 4 (antibody, V domains shown)
VH: QVQLVESGGGLVQPGGSLRLSCAASGFTFTSYYMHWVRQAPGQGLEWMGIINPSGGSTSYAQKFQGRVTMTRDTSTSTVYMELSSLRSEDTAVYYCARQQRHRRDYDYYYGMDVWGQGTTVTVSS
VL: EIVLTQSPGTLSLSPGERATLSCRASQSVSSDYLAWYQQKPGQAPRLLIYGASRRATGIPDRFSGSGSGTDFTLTISRLEPEDFAVYYCQQAYSLPPTFGGGTKVEIK
notes: expressed in yeast (Adimab platform) and purified on protein A; also called Ex. Ab 4
Regarding B6, the binding result in the assay with α4β1 integrin on cells is reported as “no binding”; in assay [2], “binds”. Half-maximal inhibition in [1] (IC50) required 2.8 nM. Besides, it took 4.9 nM to reach a half-maximal effect in [4] (EC50).

B7: Exemplary Antibody 14 (antibody, V domains shown)
VH: QVQLVESGGGLVKPGGSLRLSCAASGFTFSDYYMSWIRQAPGKGLEWVSYISSSGSTIYYADSVKGRFTISRDNAKNSLYLQMNSLRAEDTAVYYCARERGNRGDTPRYYYMDVWGKGTTVTVSS
VL: DIQMTQSPSSLSASVGDRVTITCRASQSISRYLNWYQQKPGKAPKLLIYAASSLQSGVPSRFSGSGSGTDFTLTISSLQPEDFATYYCQQSLVTPFTFGGGTKVEIK
notes: expressed in yeast (Adimab platform) and purified on protein A; also called Ex. Ab 14
Turning to B7, the IC50 in [1] turned out to be 2.2 nM. For the same molecule, the EC50 in assay [4] is 0.8 nM.

B8: Exemplary Antibody 19 (antibody, V domains shown)
VH: QVQLVESGGGVVQPGRSLRLSCAASGFTFSSYGMHWVRQAPGKGLEWVAVISYDGSNKYYADSVKGRFTISRDNSKNTLYLQMNSLRAEDTAVYYCARGGPTRGDGTRVYYYGMDVWGQGTTVTVSS
VL: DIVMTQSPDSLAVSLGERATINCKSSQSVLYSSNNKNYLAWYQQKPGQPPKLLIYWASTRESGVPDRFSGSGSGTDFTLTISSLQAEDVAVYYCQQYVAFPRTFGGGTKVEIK
notes: expressed in yeast (Adimab platform) and purified on protein A; also called Ex. Ab 19
For the molecule B8, the binding result is “no binding” in the assay with α4β1 integrin on cells and “binds” in assay [2]. In assay [1], this molecule returned an IC50 of 1.4 nM. The EC50 in [6] and in [4] was 2.8 nM each time.

B9: Exemplary Antibody 5 (antibody, V domains shown)
VH: B8 VH with Q1E, S30K, S31Y, V50S, S52W, Y59K
VL: EIVMTQSPATLSVSPGERATLSCRASQSVSSNLAWYQQKPGQAPRLLIYSASTRATGIPARFSGSGSGTEFTLTISSLQSEDFAVYYCQQYYHHPFTFGGGTKVEIK
notes: expressed in yeast (Adimab platform) and purified on protein A; also called Ex. Ab 5
On to B9, for which the binding result with α4β1 integrin on cells is reported as “no binding”.

B10: Exemplary Antibody 18 (antibody, V domains shown)
VH: QVQLVQSGAEVKKPGASVKVSCKASGYTFRSFYMHWVRQAPGQGLEWMGVINPSLGSTGYAQKFQGRVTMTRDTSTSTVYMELSSLRSEDTAVYYCARETNYYRGGPAFDIWGQGTMVTVSS
VL: not shown
notes: expressed in yeast (Adimab platform) and purified on protein A; also called Ex. Ab 18
With B10, the EC50 in assay [7] is 11 nM; in assay [3] it was 13 nM; in assay [6], 10 nM; in assay [4], 2 nM; in [8] it was 16 nM.
